PMC4006364 (Nature chemical biology, 2014)
Where two headings read alike, the source gives them in different places.

What was measured:
SaXPD = SaXPD (Sulfolobus acidocaldarius, UniProt Q4JC68); settings: 1 mM Mg-ATP, pH 6.5, 45 °C
AfXPB [1] = molecular target: T1, AfXPB (Archaeoglobus fulgidus, UniProt O29889); assay: gel mobility shift, inhibition of […]-G4 DNA binding; settings: no Mg2+, pH 7.9, 50 °C; inhibits G4 DNA binding
T1 sequence (O29889 1-452): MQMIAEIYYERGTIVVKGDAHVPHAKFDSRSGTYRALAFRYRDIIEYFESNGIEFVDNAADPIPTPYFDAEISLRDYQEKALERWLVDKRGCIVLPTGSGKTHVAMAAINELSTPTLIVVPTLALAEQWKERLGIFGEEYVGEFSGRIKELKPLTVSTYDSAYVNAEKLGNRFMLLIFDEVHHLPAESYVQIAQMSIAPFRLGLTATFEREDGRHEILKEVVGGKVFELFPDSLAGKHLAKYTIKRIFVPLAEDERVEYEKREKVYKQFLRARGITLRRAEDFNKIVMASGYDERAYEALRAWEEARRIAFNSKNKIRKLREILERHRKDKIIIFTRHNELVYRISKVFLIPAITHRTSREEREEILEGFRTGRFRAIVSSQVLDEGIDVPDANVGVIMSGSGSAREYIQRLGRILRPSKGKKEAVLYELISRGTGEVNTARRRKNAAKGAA

AfXPB [2] = molecular target: T1, AfXPB; assay: as above
XPD (SaXPD) = molecular target: T2, XPD (SaXPD) (Sulfolobus acidocaldarius, UniProt Q4JC68 1-551); assay: EMSA
T2 sequence: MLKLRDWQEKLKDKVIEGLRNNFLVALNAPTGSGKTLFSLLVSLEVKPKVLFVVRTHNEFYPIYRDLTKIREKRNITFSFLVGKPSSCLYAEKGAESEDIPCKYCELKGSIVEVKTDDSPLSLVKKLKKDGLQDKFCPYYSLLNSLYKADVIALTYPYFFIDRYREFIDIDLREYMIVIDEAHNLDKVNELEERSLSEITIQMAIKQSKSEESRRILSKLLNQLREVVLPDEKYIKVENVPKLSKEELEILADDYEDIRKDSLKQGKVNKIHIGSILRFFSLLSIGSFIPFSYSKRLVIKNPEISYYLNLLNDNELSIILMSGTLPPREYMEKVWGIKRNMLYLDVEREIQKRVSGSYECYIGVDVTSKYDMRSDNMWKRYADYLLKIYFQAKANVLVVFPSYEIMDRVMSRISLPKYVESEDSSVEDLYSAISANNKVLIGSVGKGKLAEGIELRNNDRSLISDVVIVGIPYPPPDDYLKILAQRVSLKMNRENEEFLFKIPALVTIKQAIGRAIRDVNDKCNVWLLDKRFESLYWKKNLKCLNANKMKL

AfXPB K101R = molecular target: T3, AfXPB K101R (Archaeoglobus fulgidus, UniProt O29889 1-452, K101R); assay: EMSA
T3 sequence: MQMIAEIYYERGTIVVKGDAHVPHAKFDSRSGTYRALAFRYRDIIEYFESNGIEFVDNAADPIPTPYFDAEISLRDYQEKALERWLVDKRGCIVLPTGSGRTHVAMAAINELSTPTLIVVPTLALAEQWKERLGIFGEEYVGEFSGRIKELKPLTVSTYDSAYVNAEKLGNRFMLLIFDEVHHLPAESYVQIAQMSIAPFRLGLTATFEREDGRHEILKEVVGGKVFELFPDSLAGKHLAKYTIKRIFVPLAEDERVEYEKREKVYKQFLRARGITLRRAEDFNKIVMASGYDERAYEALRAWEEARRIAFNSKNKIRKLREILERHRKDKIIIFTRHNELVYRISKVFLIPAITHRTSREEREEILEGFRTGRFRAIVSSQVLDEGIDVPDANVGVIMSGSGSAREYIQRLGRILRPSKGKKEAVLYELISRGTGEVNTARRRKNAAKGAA

XPB (AfXPB) WT [3] = molecular target: T4, XPB (AfXPB) WT (Archaeoglobus fulgidus, UniProt O29889 1-452); assay: EMSA
T4 sequence: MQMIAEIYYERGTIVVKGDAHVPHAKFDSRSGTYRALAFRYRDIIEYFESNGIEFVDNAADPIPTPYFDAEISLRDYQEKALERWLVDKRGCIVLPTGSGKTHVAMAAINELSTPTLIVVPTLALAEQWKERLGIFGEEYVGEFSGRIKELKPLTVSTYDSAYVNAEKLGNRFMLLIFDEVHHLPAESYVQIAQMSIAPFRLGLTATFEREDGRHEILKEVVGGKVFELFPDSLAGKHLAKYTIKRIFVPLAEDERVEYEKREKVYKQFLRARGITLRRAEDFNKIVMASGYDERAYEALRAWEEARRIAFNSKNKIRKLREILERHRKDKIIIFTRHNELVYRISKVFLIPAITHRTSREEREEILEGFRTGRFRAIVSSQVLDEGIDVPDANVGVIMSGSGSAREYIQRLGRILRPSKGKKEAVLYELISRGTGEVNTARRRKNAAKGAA

XPB (AfXPB) WT [4] = molecular target: T4, XPB (AfXPB) WT; assay: EMSA; remark: listed apart in the source

In the case of Nc1ncnc2c1ncn2[C@@H]1O[C@H](COP(=O)(O)OP(=O)(O)OP(=O)(O)O)[C@@H](O)[C@H]1O [ATP], the “32P-G4 DNA unwinding assay, native gel” value (SaXPD) is reported as “robust G4 DNA unwinding activity in the presence of ATP but not ATP-γS”.

For Nc1ncnc2c1ncn2[C@@H]1O[C@H](COP(=O)(O)OP(=O)(O)OP(O)(O)=S)[C@@H](O)[C@H]1O [ATP-γS], the “inhibition of G4 DNA binding” value (AfXPB [1]) was “ATP-γS similarly inhibited G4 DNA binding, so inhibition did not depend upon ATP hydrolysis”.

Work on Nc1ncnc2c1ncn2[C@@H]1O[C@H](COP(=O)(O)OP(=O)(O)O)[C@@H](O)[C@H]1O [ADP] yielded a Ki (AfXPB [2]) of roughly 4 mM.

B1: G4 DNA (TP oligonucleotide) (structured_DNA)
DNA: TGGACCAGACCTAGCAGCTATGGGGGAGCTGGGGAAGGTGGGAATGTGA
B1: binds (XPD (SaXPD)); no binding (AfXPB K101R); binds (XPB (AfXPB) WT [3]).

B2: ssDNA (ssDNA)
DNA: AGAATGGAGCAGGTGCGCTGCGAGCAGTG
B2: no binding (XPB (AfXPB) WT [4]).

B3: dsDNA (dsDNA)
DNA 1: AGAATGGAGCAGGTGCGCTGCGAGCAGTG
DNA 2: CACTGCTCGCAGCGCACCTGCTCCATTCT
B3: no binding (XPB (AfXPB) WT [4]).
